# Measured values published in patent US20060159616.
# T1: F-S-R-AMC fluorogenic substrate
# T1 chain: FSR
# T2: V-P-R-AMC fluorogenic substrate
# T2 chain: VPR
# Legend:
# [1] = biological target: T1, F-S-R-AMC fluorogenic substrate
# [2] = biological target: T2, V-P-R-AMC fluorogenic substrate
protein,measurement,setting,value
"recombinant hK13 protein (active form of human kallikrein 13, produced in Pichia pastoris) (protein) VLNTNGTSGFLPGGYTCFPHSQPWQAALLVQGRLLCGGVLVHPKWVLTAAHCLKEGLKVYLGKHALGRVEAGEQVREVVHSIPHPEYRRSPTHLNHDHDIMLLELQSPVQLTGYIQTLPLSHNNRLTPGTTCRVSGWGTTTSPQVNYPKTLQCANIQLRSDEECRQVYPGKITDNMLCAGTKEGGKDSCEGDSGGPLVCNRTLYGIVSWGDFPCGQPDRPGVYTRVSRYVLWIRETIRKYETQQQKWLKGPQ","fluorescence of the substrate FSR-AMC, 10 ng of hK13 (substrate alone 1.1 arbitrary units)",[1],to 1.9 arbitrary units (10 ng of hK13)
same,"fluorescence of the substrate FSR-AMC, 100 ng of hK13 (substrate alone 1.1 arbitrary units)",[1],to 6.9 arbitrary units (100 ng of hK13)
same,"fluorescence of the substrate FSR-AMC, 160 ng of hK13 (substrate alone 1.1 arbitrary units)",[1],to 14.5 arbitrary units (160 ng of hK13)
same,"fluorescence of the substrate VPR-AMC, 10 ng of enzyme (substrate alone 0.5 arbitrary units)",[2],to 1.9 arbitrary units (10 ng of enzyme)
same,"fluorescence of the substrate VPR-AMC, 100 ng of enzyme (substrate alone 0.5 arbitrary units)",[2],to 13.9 arbitrary units (100 ng of enzyme)
same,"fluorescence of the substrate VPR-AMC, 160 ng of enzyme (substrate alone 0.5 arbitrary units)",[2],to 35.5 arbitrary units (160 ng of enzyme)
